Assay results published in PMC6935267 (Cell Reports, 2019).

Target: T1, MERS-CoV S1-NTD (residues 1-351) with 8xHis-tag and Twin-Strep-tag (MERS-CoV (deposit 6PXH of this paper))
T1 chain: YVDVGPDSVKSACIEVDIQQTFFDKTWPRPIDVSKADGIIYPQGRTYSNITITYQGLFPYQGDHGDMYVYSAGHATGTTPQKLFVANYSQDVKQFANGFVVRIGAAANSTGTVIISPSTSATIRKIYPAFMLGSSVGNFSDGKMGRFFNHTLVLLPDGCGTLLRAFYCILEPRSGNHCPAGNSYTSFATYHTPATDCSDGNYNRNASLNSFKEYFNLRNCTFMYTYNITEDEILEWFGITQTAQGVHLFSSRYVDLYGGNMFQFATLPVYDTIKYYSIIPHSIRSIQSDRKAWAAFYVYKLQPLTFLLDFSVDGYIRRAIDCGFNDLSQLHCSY
Experiment: SPR

B1: G2 Fab (Fab, V domains shown)
VH: QVQLQQSGGELVKPGASVKLSCKTSGFTFSSSYISWLKQKPGQSLEWIAWIYAGTGGTEYNQKFTGKAQVTVDTSSSTAYMQFSSLTTEDSAIYYCARGGSSFAMDYWGQGTSVTVSS
VL: not shown
Kd: 28 nM
